Substitutions are numbered along the chain they refer to.
T1: human GIP receptor (human, UniProt P48546 22-466)
T1 sequence (looked up): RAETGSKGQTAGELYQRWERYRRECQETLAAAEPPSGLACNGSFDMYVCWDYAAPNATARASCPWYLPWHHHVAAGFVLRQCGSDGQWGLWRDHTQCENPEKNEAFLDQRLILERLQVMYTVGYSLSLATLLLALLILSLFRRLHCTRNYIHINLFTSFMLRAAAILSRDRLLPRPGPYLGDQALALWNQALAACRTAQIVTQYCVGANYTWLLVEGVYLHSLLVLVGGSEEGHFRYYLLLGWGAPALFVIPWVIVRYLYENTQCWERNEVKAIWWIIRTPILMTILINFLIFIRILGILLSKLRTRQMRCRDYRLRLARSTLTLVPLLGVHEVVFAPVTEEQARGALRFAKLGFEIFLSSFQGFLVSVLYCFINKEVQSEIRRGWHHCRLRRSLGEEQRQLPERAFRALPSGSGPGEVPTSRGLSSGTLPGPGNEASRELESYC

T2: human GIP receptor (human) (UniProt P48546)
T2 sequence (looked up): T1 sequence (looked up)

B1: Example 493 (peptide)
peptide: YXEGTXTSDXXIXLDXQAQXXFIKXLIKGGPSSGAPPPS
modifications: Y-Aib-EGT-αMeF(2F)-TSD-4Pal-Aib-I-αMeL-LD-Orn-QAQ-Aib-4Pal-FIK((2-[2-(2-Amino-ethoxy)-ethoxy]-acetyl)2-(γ-Glu)-(10-(4-carboxyphenoxy)decanoyl))-αMeY-LIK((2-[2-(2-Amino-ethoxy)-ethoxy]-acetyl)2-(γ-Glu)-(10-(4-carboxyphenoxy)decanoyl))GGPSSGAPPPS-NH2
B2: Example 483 (peptide)
peptide: B1 peptide
modifications: Y-Aib-EGT-αMeF(2F)-TSD-4Pal-Aib-I-αMeL-LD-Orn-QAQ-Aib-Orn-FIK((γ-Glu)-(2-[2-(2-Amino-ethoxy)-ethoxy]-acetyl)2-(γ-Glu)-(10-(4-carboxyphenoxy)decanoyl))-αMeY-LIK((γ-Glu)-(2-[2-(2-Amino-ethoxy)-ethoxy]-acetyl)2-(γ-Glu)-(10-(4-carboxyphenoxy)decanoyl))GGPSSGAPPPS-NH2
B3: Example 482 (peptide)
peptide: B1 peptide
modifications: Y-Aib-EGT-αMeF(2F)-TSD-4Pal-Aib-I-αMeL-LD-Orn-QAQ-Aib-Orn-FIK((γ-Glu)-(2-[2-(2-Amino-ethoxy)-ethoxy]-acetyl)2-(γ-Glu)-CO-(CH2)12-CO2H)-αMeY-LIK((γ-Glu)-(2-[2-(2-Amino-ethoxy)-ethoxy]-acetyl)2-(γ-Glu)-CO-(CH2)12-CO2H)GGPSSGAPPPS-NH2
B4: Example 425 (peptide)
peptide: YXEGTXTSDKXIXLDXKAQXEFIXXLIEGGPSSGAPPPS
modifications: Y-Aib-EGT-αMeF(2F)-TSDK((2-[2-(2-Amino-ethoxy)-ethoxy]-acetyl)-(γ-Glu)-CO-(CH2)10-CH3)-Aib-I-αMeL-LD-Orn-K((2-[2-(2-Amino-ethoxy)-ethoxy]-acetyl)-(γ-Glu)-CO-(CH2)10-CH3)AQ-Aib-EFI-(D-Glu)-αMeY-LIEGGPSSGAPPPS-NH2
B5: Example 360 (peptide)
peptide: B4 peptide with K10X, E21K
modifications: Y-Aib-EGT-αMeF(2F)-TSD-4Pal-Aib-I-αMeL-LD-Orn-K((2-[2-(2-Amino-ethoxy)-ethoxy]-acetyl)-(γ-Glu)-(10-(4-carboxyphenoxy)decanoyl))AQ-Aib-K((2-[2-(2-Amino-ethoxy)-ethoxy]-acetyl)-(γ-Glu)-(10-(4-carboxyphenoxy)decanoyl))FI-(D-Glu)-αMeY-LIEGGPSSGAPPPS-NH2
B6: Example 366 (peptide)
peptide: B4 peptide with K10Y, E21K
modifications: Y-Aib-EGT-αMeF(2F)-TSDY-Aib-I-αMeL-LD-Orn-K((2-[2-(2-Amino-ethoxy)-ethoxy]-acetyl)-(γ-Glu)-CO-(CH2)12-CO2H)AQ-Aib-K((2-[2-(2-Amino-ethoxy)-ethoxy]-acetyl)-(γ-Glu)-CO-(CH2)12-CO2H)FI-(D-Glu)-αMeY-LIEGGPSSGAPPPS-NH2
B7: Example 484 (peptide)
peptide: B1 peptide
modifications: Y-Aib-EGT-αMeF(2F)-TSD-4Pal-Aib-I-αMeL-LD-Orn-QAQ-Aib-Orn-FIK((2-[2-(2-Amino-ethoxy)-ethoxy]-acetyl)-(γ-Glu)-(2-[2-(2-Amino-ethoxy)-ethoxy]-acetyl)-(γ-Glu)-CO-(CH2)12-CO2H)-αMeY-LIK((2-[2-(2-Amino-ethoxy)-ethoxy]-acetyl)-(γ-Glu)-(2-[2-(2-Amino-ethoxy)-ethoxy]-acetyl)-(γ-Glu)-CO-(CH2)12-CO2H)GGPSSGAPPPS-NH2
B8: Example 416 (peptide)
peptide: B1 peptide with Q17K, K24X
modifications: Y-Aib-EGT-αMeF(2F)-TSD-4Pal-Aib-I-αMeL-LD-Orn-K((2-[2-(2-Amino-ethoxy)-ethoxy]-acetyl)2-(γ-Glu)-CO-(CH2)10-CH3)AQ-Aib-4Pal-FI-(D-Glu)-αMeY-LIK((2-[2-(2-Amino-ethoxy)-ethoxy]-acetyl)2-(γ-Glu)-CO-(CH2)10-CH3)GGPSSGAPPPS-NH2
B9: Example 486 (peptide)
peptide: B1 peptide
modifications: Y-Aib-EGT-αMeF(2F)-TSD-4Pal-Aib-I-αMeL-LD-Orn-QAQ-Aib-Orn-FIK((2-[2-(2-Amino-ethoxy)-ethoxy]-acetyl)-(γ-Glu)3-CO-(CH2)12-CO2H)-αMeY-LIK((2-[2-(2-Amino-ethoxy)-ethoxy]-acetyl)-(γ-Glu)3-CO-(CH2)12-CO2H)GGPSSGAPPPS-NH2
B10: Example 485 (peptide)
peptide: B1 peptide
modifications: Y-Aib-EGT-αMeF(2F)-TSD-4Pal-Aib-I-αMeL-LD-Orn-QAQ-Aib-Orn-FIK((2-[2-(2-Amino-ethoxy)-ethoxy]-acetyl)-(γ-Glu)-(2-[2-(2-Amino-ethoxy)-ethoxy]-acetyl)-(γ-Glu)-(10-(4-carboxyphenoxy)decanoyl))-αMeY-LIK((2-[2-(2-Amino-ethoxy)-ethoxy]-acetyl)-(γ-Glu)-(2-[2-(2-Amino-ethoxy)-ethoxy]-acetyl)-(γ-Glu)-(10-(4-carboxyphenoxy)decanoyl))GGPSSGAPPPS-NH2
B11: Example 487 (peptide)
peptide: B1 peptide
modifications: Y-Aib-EGT-αMeF(2F)-TSD-4Pal-Aib-I-αMeL-LD-Orn-QAQ-Aib-Orn-FIK((2-[2-(2-Amino-ethoxy)-ethoxy]-acetyl)-(γ-Glu)3-(10-(4-carboxyphenoxy)decanoyl))-αMeY-LIK((2-[2-(2-Amino-ethoxy)-ethoxy]-acetyl)-(γ-Glu)3--(10-(4-carboxyphenoxy)decanoyl))GGPSSGAPPPS-NH2

Legend:
Assay in all cases: cell-based or functional assay
[1] = target: human GLP-1 receptor (human, UniProt P43220 24-463)
[2] = target: human glucagon receptor (human, UniProt P47871 26-477)
[3] = target: T1, human GIP receptor
[4] = target: human glucagon receptor (human) (UniProt P47871)
[5] = target: hGLP-1R (Homo sapiens, UniProt P43220)
[6] = target: T2, human GIP receptor (human)

human glucagon receptor, sequence (P47871 26-477): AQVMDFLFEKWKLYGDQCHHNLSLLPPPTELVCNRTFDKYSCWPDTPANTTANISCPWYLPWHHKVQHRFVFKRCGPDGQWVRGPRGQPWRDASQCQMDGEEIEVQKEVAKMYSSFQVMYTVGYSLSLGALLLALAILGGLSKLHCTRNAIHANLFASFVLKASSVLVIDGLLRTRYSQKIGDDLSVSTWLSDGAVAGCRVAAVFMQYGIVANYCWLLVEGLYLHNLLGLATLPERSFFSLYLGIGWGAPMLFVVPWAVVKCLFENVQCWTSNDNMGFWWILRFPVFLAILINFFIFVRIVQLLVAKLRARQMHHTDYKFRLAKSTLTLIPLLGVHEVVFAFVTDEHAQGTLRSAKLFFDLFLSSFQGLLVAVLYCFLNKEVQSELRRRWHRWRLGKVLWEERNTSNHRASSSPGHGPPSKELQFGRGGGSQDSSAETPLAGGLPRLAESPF

Row | Binder | cAMP EC50 (1.0% HSA) [1] | cAMP EC50 (1.0% HSA) [2] | cAMP EC50 (1.0% HSA) [3] | cAMP EC50 [4] | cAMP EC50 [5] | cAMP Emax [5] | cAMP EC50 [6] | cAMP Emax [6] | cAMP Emax (1.0% HSA) [3]
1 | B1 | 7.24 nM | > 9950 nM | 0.591 nM | – | – | – | – | – | –
2 | B2 | 3.33 nM | > 9950 nM | 0.297 nM | – | – | – | – | – | –
3 | B3 | 4.85 nM | > 9950 nM | 0.89 nM | – | – | – | – | – | –
4 | B4 | – | > 9950 nM | 0.875 nM | > 9950 nM | 0.0965 nM | 108% | 0.00943 nM | 97.6% | 89.9%
5 | B5 | 28.2 nM | > 9950 nM | 1.91 nM | > 9950 nM | 0.301 nM | 89.8% | 0.0121 nM | 106% | –
6 | B6 | 96.2 nM | > 9950 nM | 3.14 nM | > 9950 nM | 0.279 nM | 89.6% | 0.0162 nM | 108% | 95.9%
7 | B7 | 3.66 nM | > 9950 nM | 0.453 nM | – | – | – | – | – | –
8 | B8 | – | > 9950 nM | 0.723 nM | > 9950 nM | 0.332 nM | 104% | 0.0214 nM | 99% | 83%
9 | B9 | 2 nM | > 9950 nM | 0.239 nM | – | – | – | – | – | –
10 | B10 | 3.9 nM | > 9950 nM | 0.536 nM | – | – | – | – | – | –
11 | B11 | 3.16 nM | > 9950 nM | 0.429 nM | – | – | – | – | – | –

Source: patent publication US20230265151A1, “GIP/GLP1 CO-AGONIST COMPOUNDS” (priority 2020, published 2023)
